Details: rat, in vivo
Text: Male athymic nude R. norvegicus between 9–12 weeks of age and weighing 250–350 g were purchased from Envigo (Livermore, CA, USA). Because estrogen interferes with streptozotocin [44] (see next), only male animals were included. Athymic nude rats were chosen to abrogate a possible antibody response against the human insulin to be injected. Animals were housed for a seven-day acclimatization period before initiating any experimental procedures. To avoid endogenous insulin in subject rats from cross-reacting in the human insulin assays, animals were rendered diabetic by a single intraperitoneal injection, 60 mg/kg, of streptozotocin (Sigma-Aldrich, St. Louis, MO, USA). Blood glucose concentrations were monitored daily using a Freestyle Lite Glucose Monitoring System (Abbott Diabetes Care Inc., Alameda, CA, USA). Rats were considered diabetic when blood glucose concentrations greater than 200 mg/dl were recorded on three consecutive days. Rats verified as diabetic were maintained with exogenous long-acting insulin (Lantus, Sanofi-Aventis, Bridgewater, NJ, USA) throughout the study; maintenance insulin treatment also serves to forestall insulin resistance. Maintenance insulin therapy was suspended for 24 hours prior to each insulin kinetics study. Two days after the initial insulin-kinetics assay two empty, 1.5 cm^2 per side, single-chamber (having a nominal internal volume of 22.5 μl), implantable vascularizing microchambers, IVMs (Procyon Technologies LLC, Tucson, AZ, USA) (Fig 1A) were implanted subcutaneously on the dorsal aspect of each rat. The initial insulin kinetics assays were performed 7 days after STZ induction of diabetes. […] Plasma samples collected from each insulin kinetics assay were analyzed for human insulin concentration using a commercial human insulin ELISA kit (Alpco, Salem, NH, USA). […] The measured insulin concentrations were converted from IU/ml to μg/ml according to the manufacturer’s recommended conversion ratios of 1 IU of human insulin = 6nmol = 34.8 μg of insulin. […] The mean and standard deviation (SD) for each category were then calculated. […]

insulin human
Plasma insulin curves after SC injection, diluted versus stock concentration: did not vary significantly | 95% CI of Tmax (sc): 13.18 to 32.27 min | Tmax (mean peak time of plasma insulin) (sc): 22.7 min
